From paper PMC10786891, “Massively parallel profiling of RNA-targeting CRISPR-Cas13d”
Changes are numbered by the printed parent chain. Names and notes keep the numbering of the source.

T1: EsCas13d, nuclease-dead (Eubacterium siraeum, UniProt B0MS50, R295A;H300A;R849A;H854A)
T1 sequence: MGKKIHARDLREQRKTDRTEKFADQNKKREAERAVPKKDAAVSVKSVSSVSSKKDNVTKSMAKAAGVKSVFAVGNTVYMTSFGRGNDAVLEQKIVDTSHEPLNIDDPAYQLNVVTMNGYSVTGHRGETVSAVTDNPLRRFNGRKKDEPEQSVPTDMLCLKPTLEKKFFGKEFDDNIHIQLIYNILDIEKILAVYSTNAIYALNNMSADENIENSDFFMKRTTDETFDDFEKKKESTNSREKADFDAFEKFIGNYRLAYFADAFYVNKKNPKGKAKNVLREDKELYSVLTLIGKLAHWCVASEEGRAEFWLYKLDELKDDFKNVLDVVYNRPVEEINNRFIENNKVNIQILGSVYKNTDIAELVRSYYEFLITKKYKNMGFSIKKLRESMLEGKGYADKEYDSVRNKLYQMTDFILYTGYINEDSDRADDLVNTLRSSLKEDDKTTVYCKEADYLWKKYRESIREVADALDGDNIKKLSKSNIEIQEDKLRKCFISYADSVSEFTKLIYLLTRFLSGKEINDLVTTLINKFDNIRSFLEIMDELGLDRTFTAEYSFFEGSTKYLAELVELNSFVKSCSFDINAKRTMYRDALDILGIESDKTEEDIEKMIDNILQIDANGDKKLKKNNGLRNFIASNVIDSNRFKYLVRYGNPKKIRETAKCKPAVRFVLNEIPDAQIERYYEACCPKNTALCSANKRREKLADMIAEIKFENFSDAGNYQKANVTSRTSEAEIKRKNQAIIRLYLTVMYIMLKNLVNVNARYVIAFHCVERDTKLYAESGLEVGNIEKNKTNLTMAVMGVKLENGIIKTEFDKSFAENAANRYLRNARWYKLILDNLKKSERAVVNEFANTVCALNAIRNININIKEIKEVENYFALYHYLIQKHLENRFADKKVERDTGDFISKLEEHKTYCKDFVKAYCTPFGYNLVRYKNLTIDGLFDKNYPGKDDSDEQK

B1: target 1 insC 3' of 14,insU 3' of 2 (mixed)
RNA 1: CACCCGUGCAAAAAUGCAGGGGUCUAAAACUGAGCGGAUAACCUCUCUAUGG
RNA 2: GGGAAUGGAUCCACAUCUACGAAUUCGUACCAUAGAGACGGUUAUCCGCUCUACCGAGAUCGGAAGAGCACACGU
B2: target 1 insG 3' of 21,insA 3' of 15 (mixed)
RNA 1: B1 RNA 1
RNA 2: GGGAAUGGAUCCACAUCUACGAAUUCGUACCGAUAGAGAAGGUUAUCCGCUCACCGAGAUCGGAAGAGCACACGU
B3: target 1 insG 3' of 14,insG 3' of 2 (mixed)
RNA 1: B1 RNA 1
RNA 2: B1 RNA 2 with C39G, U52G
B4: target 1 insG 3' of 16,insC 3' of 11 (mixed)
RNA 1: B1 RNA 1
RNA 2: B2 RNA 2 with G32A, A33U, U34A, A35G, G36A, A37G, A40G, G42U, U43C
B5: target 1 insA 3' of 17,insC 3' of 15 (mixed)
RNA 1: B1 RNA 1
RNA 2: B2 RNA 2 with G32A, A33U, U34A, A35G, G36A, A39C
B6: target 1 insU 3' of 14,insC 3' of 8 (mixed)
RNA 1: B1 RNA 1
RNA 2: B1 RNA 2 with C39U, G48C, C49G, U50C, C51U, U52C
B7: target 1 insG 3' of 4,insC 3' of 3 (mixed)
RNA 1: B1 RNA 1
RNA 2: B1 RNA 2 with C39G, G41U, U43A, A44U, U45C, C47G, G48C, C49G, U52C
B8: target 1 insU 3' of 15,insC 3' of 12 (mixed)
RNA 1: B1 RNA 1
RNA 2: B2 RNA 2 with G32A, A33U, U34A, A35G, G36A, A37G, G38U, A40G, G42C
B9: target 1 insG 3' of 16,insA 3' of 2 (mixed)
RNA 1: B1 RNA 1
RNA 2: B1 RNA 2 with A38G, C39A, U52A
B10: target 1 insU 3' of 12,insU 3' of 5 (mixed)
RNA 1: B1 RNA 1
RNA 2: B1 RNA 2 with C39G, G41U, C49U, U50C, C51U, U52C
B11: target 1 insG 3' of 16,insC 3' of 1 (mixed)
RNA 1: B1 RNA 1
RNA 2: B1 RNA 2 with A38G, C39A, U52A, A53C
B12: target 1 C2A,U19A (mixed)
RNA 1: B1 RNA 1
RNA 2: GGGAAUGGAUCCACAUCUACGAAUUCGUACCAAAGAGAGGUUAUCCGCUAACCGAGAUCGGAAGAGCACACGU
B13: target 1 insC 3' of 3 (mixed)
RNA 1: B1 RNA 1
RNA 2: GGGAAUGGAUCCACAUCUACGAAUUCGUACCAUAGAGAGGUUAUCCGCUCCACCGAGAUCGGAAGAGCACACGU
B14: target 1 A20C,C22G (mixed)
RNA 1: B1 RNA 1
RNA 2: B12 RNA 2 with C30G, A32C, A33U, A50C
B15: target 1 insU 3' of 5,insC 3' of 3 (mixed)
RNA 1: B1 RNA 1
RNA 2: B1 RNA 2 with C39G, G41U, U43A, A44U, U45C, C47G, G48U, U52C
B16: target 1 insC 3' of 17,insC 3' of 9 (mixed)
RNA 1: B1 RNA 1
RNA 2: B2 RNA 2 with G32A, A33U, U34A, A35G, G36C, A40G, G42U, U44A, A45C
B17: target 1 insA 3' of 19,insC 3' of 18 (mixed)
RNA 1: B1 RNA 1
RNA 2: B2 RNA 2 with G32A, A33U, U34A, G36C, A37G, G38A, A39G
B18: target 1 U10C,C22A (mixed)
RNA 1: B1 RNA 1
RNA 2: B12 RNA 2 with C30A, A33U, U42C, A50C
B19: target 1 U11C,G12U (mixed)
RNA 1: B1 RNA 1
RNA 2: B12 RNA 2 with A33U, G40U, U41C, A50C
B20: target 1 insA 3' of 11,insG 3' of 10 (mixed)
RNA 1: B1 RNA 1
RNA 2: GGGAAUGGAUCCACAUCUACGAAUUCGUACCAUAGAGAGGUAUGAUCCGCUCACCGAGAUCGGAAGAGCACACGU
B21: target 1 insG 3' of 16,insG 3' of 1 (mixed)
RNA 1: B1 RNA 1
RNA 2: B1 RNA 2 with A38G, C39A, U52A, A53G
B22: target 1 insC 3' of 8,insU 3' of 5 (mixed)
RNA 1: B1 RNA 1
RNA 2: B20 RNA 2 with A42U, U43A, G44U, A45C, U46C, C48G, G49U
B23: target 1 U11C,A16G (mixed)
RNA 1: B1 RNA 1
RNA 2: B12 RNA 2 with A33U, A36G, U41C, A50C
B24: target 1 complement block 2-5 (mixed)
RNA 1: B1 RNA 1
RNA 2: B12 RNA 2 with A33U, G47C, C48G, U49A, A50G
B25: target 1 insG 3' of 16,insU 3' of 6 (mixed)
RNA 1: B1 RNA 1
RNA 2: B1 RNA 2 with A38G, C39A, G48U, C49G, U50C, C51U, U52C
B26: target 1 G5A,A9C (mixed)
RNA 1: B1 RNA 1
RNA 2: B12 RNA 2 with A33U, A43C, G47A, A50C
B27: target 1 insC 3' of 12,insA 3' of 6 (mixed)
RNA 1: B1 RNA 1
RNA 2: B20 RNA 2 with U41C, A42U, G44A, A45U, U46C, C48A
B28: target 1 G5U,U8C (mixed)
RNA 1: B1 RNA 1
RNA 2: B12 RNA 2 with A33U, U44C, G47U, A50C
B29: target 1 U3G,U11C (mixed)
RNA 1: B1 RNA 1
RNA 2: B12 RNA 2 with A33U, U41C, U49G, A50C

target: T1, EsCas13d, nuclease-dead; test: crRNA (strand 1, pre-loaded); Mg2+; 40 mM Tris-HCl pH 7.5, 150 mM NaCl, 6 mM MgCl2, 1 mM DTT, 0.1% Tween-20, 0.2 mg/ml BSA; 25 C; 10 min per concentration, then washed; details: tags: His6-TwinStrep-SUMO cleaved; N-terminal SNAP kept (SNAP-Surface 488); label: 3' end held by stalled T7 RNA polymerase

Binder | Kd [nM]
B1 | 59 ± 11
B2 | 37 ± 6
B3 | 11.8 ± 0.7
B4 | 46 ± 11
B5 | 12.5 ± 1.4
B6 | 90 ± 40
B7 | 13.4 ± 1.1
B8 | 35 ± 8
B9 | 14.3 ± 0.9
B10 | 11 ± 0.7
B11 | 11.9 ± 1.1
B12 | 32.7 ± 3.3
B13 | 12.6 ± 0.8
B14 | 39.2 ± 2.3
B15 | 38 ± 6
B16 | 58 ± 13
B17 | 56 ± 5
B18 | 35.5 ± 2
B19 | 10.2 ± 0.5
B20 | 16.5 ± 0.7
B21 | 13 ± 0.8
B22 | 16.1 ± 1.2
B23 | 80 ± 8
B24 | 10.6 ± 0.6
B25 | 21 ± 1
B26 | 16.7 ± 1.2
B27 | 11.1 ± 0.5
B28 | 57 ± 12
B29 | 9.9 ± 0.7
